Tested on: O=C(O)[C@H]1O[C@@H](Oc2ccc([N+](=O)[O-])cc2)[C@H](O)[C@@H](O)[C@@H]1O
Assay: purified protein, by the assay type
Conditions: 37.0 °C

| Substance | Km | kcat | kcat/Km |
| --- | --- | --- | --- |
| BfGUS (Bacteroides fragilis NCTC 9343) | 1900 ± 300 µM | 18 ± 1 s⁻¹ | 9500 M⁻¹ s⁻¹ |
| CpGUS (Clostridium perfringens str. 13) | 1100 ± 200 µM | 2.6 ± 0.6 s⁻¹ | 2400 M⁻¹ s⁻¹ |
